# Columns and labels:
# [1] = biological target: purified recombinant vimentin protein (UniProt P08670); assay: ELISA; 1 ug vimentin immobilised overnight on Immulon 2 HB plates in 0.1 M KPO4 pH 7.0; varying molar concentrations of CPMV, 1 hour, room temperature; detected with anti-CPMV polyclonal antibody; avidity not ruled out
# [2] = biological target: vimentin expressed from pCMV-SPORT6-vimentin in MFT-16 vim-/- cells (UniProt P08670); assay: flow cytometry on cells; cells transfected with pCMV-SPORT6-vimentin or mock-transfected, 24 hours later incubated with wildtype CPMV at 5x10^5 virions per cell for 2 hours; percent CPMV-positive cells; data not shown
# [3] = biological target: surface vimentin on HeLa cells (human (endogenous in HeLa)) (UniProt P08670); assay: as above
substance,measurement,setting,value
"Cowpea mosaic virus (CPMV) particles, wild type (complex)",EC50,[1],3.72 nM
same,percent of cells CPMV-positive,[2],1.21%
same,percent of cells CPMV-positive,[3],5.36%
